{"source": "patent US20130196415", "test_system": "fibrin"}
{"substance": "trypsin (EC3.4.21.4, manufactured by Wako Pure Chemical Industries, Ltd.)", "values": [{"measurement": "digestion circle on fibrin-containing solid medium (fibrinolytic activity assay, protease at FLV 111, overnight at 37° C.)", "value": "a digestion circle was observed for trypsin"}]}
